# According to PMC5102582 (eLife, 2016):
# Tests used:
# [1] = biological target: T1, wt ND1Lp97-ADP (p97/VCP residues 1-480: NTD, D1 and the D1-D2 linker) (Homo sapiens/Mus musculus (identical), UniProt P55072 1-480); assay: NMR titration; methyl-TROSY 13C-1H HMQC chemical shift titration of ILVM-13CH3 wt ND1Lp97-ADP with perdeuterated UBXD1-N; global analysis of V68, L140, I175, I182; effective macroscopic Kd; 50°C; 25 mM HEPES pH 7.0, 50 mM NaCl, 10 mM ADP, 5 mM TCEP, D2O; a new sample for each ligand concentration; details: both partners purified
# T1 construct: p97/VCP, Homo sapiens/Mus musculus (identical), UniProt P55072 versus Q01853, residues 1-480; highly deuterated, ILVM-13CH3 methyl labelled; 320 kDa hexamer (6 x 53 kDa); also called p97 ND1L 1-480; NDL1p97-ADP; not shown: His6, N-terminal, cleaved
# T1 sequence (P55072 1-480): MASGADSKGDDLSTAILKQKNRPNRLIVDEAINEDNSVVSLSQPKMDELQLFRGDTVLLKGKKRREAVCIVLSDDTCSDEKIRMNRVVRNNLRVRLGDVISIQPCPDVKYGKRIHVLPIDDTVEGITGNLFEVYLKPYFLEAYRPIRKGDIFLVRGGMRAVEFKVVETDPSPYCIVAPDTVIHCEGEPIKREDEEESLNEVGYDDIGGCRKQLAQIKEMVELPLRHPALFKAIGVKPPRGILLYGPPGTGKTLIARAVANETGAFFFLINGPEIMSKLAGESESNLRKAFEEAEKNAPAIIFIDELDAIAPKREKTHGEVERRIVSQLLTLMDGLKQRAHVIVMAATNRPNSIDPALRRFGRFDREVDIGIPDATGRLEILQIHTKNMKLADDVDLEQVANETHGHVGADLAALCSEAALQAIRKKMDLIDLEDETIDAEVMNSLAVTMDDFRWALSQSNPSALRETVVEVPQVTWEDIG
# R155H ND1Lp97-ADP = biological target: T2, R155H ND1Lp97-ADP (Homo sapiens/Mus musculus (identical), UniProt P55072 1-480, R155H); assay: NMR titration; one point: 150 µM UBXD1-N added to 50 µM (monomer) wt or mutant ND1Lp97-ADP (3:1); methyl-TROSY HMQC CSPs; Kd from the bound fraction by the V68 shift; 50°C; 25 mM HEPES pH 7.0, 50 mM NaCl, 10 mM ADP, 5 mM TCEP, D2O; details: both partners purified
# T2 construct: p97/VCP, Homo sapiens/Mus musculus (identical), residues 1-480, IBMPFD disease mutation R155H; deuterated, ILVM-13CH3 labelled; mutation found in IBMPFD patients; not shown: His6, N-terminal, cleaved
# T2 sequence (P55072 1-480 R155H): as the sequence (P55072 1-480) above, with R155H counted along it
# N387H ND1Lp97-ADP = biological target: T3, N387H ND1Lp97-ADP (Homo sapiens/Mus musculus (identical), UniProt P55072 1-480, N387H); assay: as above; details: both partners purified
# T3 construct: p97/VCP, Homo sapiens/Mus musculus (identical), residues 1-480, IBMPFD disease mutation N387H; deuterated, ILVM-13CH3 labelled; mutation found in IBMPFD patients; not shown: His6, N-terminal, cleaved
# T3 sequence (P55072 1-480 N387H): as the sequence (P55072 1-480) above, with N387H counted along it
# R95G ND1Lp97-ADP = biological target: T4, R95G ND1Lp97-ADP (Homo sapiens/Mus musculus (identical), UniProt P55072 1-480, R95G); assay: as above; details: both partners purified
# T4 construct: p97/VCP, Homo sapiens/Mus musculus (identical), residues 1-480, IBMPFD disease mutation R95G; deuterated, ILVM-13CH3 labelled; mutation found in IBMPFD patients; also called R95G mutant; not shown: His6, N-terminal, cleaved
# T4 sequence (P55072 1-480 R95G): as the sequence (P55072 1-480) above, with R95G counted along it
# R155P ND1Lp97-ADP = biological target: T5, R155P ND1Lp97-ADP (Homo sapiens/Mus musculus (identical), UniProt P55072 1-480, R155P); assay: as above; details: both partners purified
# T5 construct: p97/VCP, Homo sapiens/Mus musculus (identical), residues 1-480, IBMPFD disease mutation R155P; deuterated, ILVM-13CH3 labelled; mutation found in IBMPFD patients; not shown: His6, N-terminal, cleaved
# T5 sequence (P55072 1-480 R155P): as the sequence (P55072 1-480) above, with R155P counted along it
# [2] = biological target: the molecule itself; assay: SEC; HiLoad 16/60 Superdex 200 gel filtration column, during purification of full-length p47
Kd [1] [µM],Kd (R155H ND1Lp97-ADP) [µM],Kd (N387H ND1Lp97-ADP) [µM],Kd (R95G ND1Lp97-ADP) [µM],Kd (R155P ND1Lp97-ADP) [µM],Binder,stoichiometry N [2]
22 ± 2,~80,~80,~200,~200,"UBXD1-N (N-terminal portion of UBXD1, residues 1-133) (domain or fragment, Mus musculus, UniProt Q99PL6 1-133, looked up, UBXD1, Mus musculus, residues 1-133 (holds H1/H2 and VIM, residues 52-63); perdeuterated; construct after Trusch et al., 2015; not shown: His6, N-terminal, cleaved) MKKFFQEIKADIKFKSAGPGQKLTDSAGEKTTKGKSPQLALRQPRQGPTDEAQMAAAAALARLEQKQPRARGPTSQDSIRNQVRKELQAEATSSNNPGAPGTNSVPEPKEEISPHLAVPGVFFICPLTGVTLR",
,,,,,"full-length p47 (natural protein, Mus musculus, UniProt Q9CZ44 1-370, looked up, p47 (NSFL1 cofactor p47), Mus musculus, full length; perdeuterated; eluted as a trimer on gel filtration; also called p47 trimer; not shown: His6, N-terminal, cleaved) MAEERQDALREFVAVTGTEEDRARFFLESAGWDLQIALASFYEDGGDEDIVTISQATPSSVSRGTAPSDNRVTSFRDLIHDQDEEEEEEEGQRFYAGGSERSGQQIVGPPRKKSPNELVDDLFKGAKEHGAVAVERVTKSPGETSKPRPFAGGGYRLGAAPEEESAYVAGERRRHSGQDVHVVLKLWKTGFSLDNGDLRSYQDPSNAQFLESIRRGEVPAELRRLAHGGQVNLDMEDHRDEDFVKPKGAFKAFTGEGQKLGSTAPQVLNTSSPAQQAENEAKASSSILINEAEPTTNIQIRLADGGRLVQKFNHSHRISDIRLFIVDARPAMAATSFVLMTTFPNKELADENQTLKEANLLNAVIVQRLT",3
